Measured values taken from patent US8198021.

Columns and labels:
[1] = target: Escherichia coli RNA polymerase (RNAP) holoenzyme (Escherichia coli) (UniProt P0A7Z4); assay: fluorescence-detected abortive initiation assay (tri- and tetranucleotide synthesis), fit to partial-competitive inhibition
[2] = target: Escherichia coli RNA polymerase (RNAP) holoenzyme (Escherichia coli) (UniProt P0A7Z4); assay: transcription assay at four NTP concentrations, fit to partial-competitive inhibition (7-mer and 8-mer abortive products); Ki called the reciprocal of the equilibrium binding constant for the MccJ25-RNAP interaction

## Escherichia coli RNA polymerase (RNAP) holoenzyme
Microcin J25
  α, the factor by which MccJ25 increases KM for NTPs (7-mer and 8-mer abortive products): 15
  α, the factor by which MccJ25 increases KM for NTPs (fluorescence-detected abortive initiation, tri- and tetranucleotide synthesis): α 8.7±2

## microcin J25 (peptide)
[1]
  Ki: 1.2 µM
[2]
  Ki: 1.4 µM
